Data on 31 molecules can be found in patent publication US20150210756A1 (NEW YORK UNIVERSITY, published 2015).

Experiment in all cases: ELISA after cis-display panning
(In general: In an ELISA, binding on a coated surface is turned into a signal by an enzyme label.)

The target in one assay is T1, LukE (S. aureus, UniProt Q2FXB0 24-306).
T1 construct: also called leukotoxin E

The target of a further assay is T2, LukD (S. aureus, UniProt Q2FXB1 27-327).
T2 construct: also called leukotoxin D
T2 sequence: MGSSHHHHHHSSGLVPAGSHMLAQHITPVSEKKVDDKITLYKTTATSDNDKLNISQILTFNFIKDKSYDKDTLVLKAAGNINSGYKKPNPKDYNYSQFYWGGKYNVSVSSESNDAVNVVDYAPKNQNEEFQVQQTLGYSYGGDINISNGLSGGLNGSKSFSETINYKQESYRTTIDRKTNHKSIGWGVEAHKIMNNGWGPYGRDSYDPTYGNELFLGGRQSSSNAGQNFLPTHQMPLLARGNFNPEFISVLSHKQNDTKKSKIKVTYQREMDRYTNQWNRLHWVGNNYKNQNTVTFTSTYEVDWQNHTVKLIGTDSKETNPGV

In assay [1] the target is T3, Recombinant LukA′B toxoid complex (S. aureus, UniProt Q2FFA2 28-351; P21224 30-338).
T3 construct: also called modified LukA′B toxoid complex
T3 sequence 1: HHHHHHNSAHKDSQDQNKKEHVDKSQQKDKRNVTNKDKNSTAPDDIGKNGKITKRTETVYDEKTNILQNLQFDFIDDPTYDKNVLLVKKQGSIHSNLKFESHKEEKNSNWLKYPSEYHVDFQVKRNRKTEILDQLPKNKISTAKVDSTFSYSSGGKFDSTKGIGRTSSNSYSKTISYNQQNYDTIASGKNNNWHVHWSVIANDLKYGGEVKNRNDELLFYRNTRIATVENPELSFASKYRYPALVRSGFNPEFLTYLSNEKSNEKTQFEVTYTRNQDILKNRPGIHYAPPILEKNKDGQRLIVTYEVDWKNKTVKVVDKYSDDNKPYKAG
T3 sequence 2: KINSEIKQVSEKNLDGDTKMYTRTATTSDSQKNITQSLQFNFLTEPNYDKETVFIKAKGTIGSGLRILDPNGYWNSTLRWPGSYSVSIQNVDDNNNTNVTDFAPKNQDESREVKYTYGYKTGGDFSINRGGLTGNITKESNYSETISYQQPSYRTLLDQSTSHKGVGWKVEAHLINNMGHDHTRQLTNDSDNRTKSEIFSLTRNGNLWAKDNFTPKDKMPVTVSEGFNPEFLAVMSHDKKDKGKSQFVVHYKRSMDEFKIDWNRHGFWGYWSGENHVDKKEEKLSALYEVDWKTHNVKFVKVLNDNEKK

B1: Luk47 (designed binder)
chain: LPAPKNLVVSRVTEDSARLSWTAPDAAFDSFGIQYFETTESGEAIVLTVPGSERSYDLTGLKPGTEYVVFISGVKGGPLSWPLSAIFTT
notes: not shown: C-terminal poly-histidine tag
On to B1, for which the binding result in the assay with LukE is listed as “binds”.

B2: Luk52 (designed binder)
chain: LPAPKNLVVSRVTEDSARLSWTAPDAAFDSFWIQYGEAQEFGEAIVLTVPGSERSYDLTGLKPGTEYIVFITGVKGGNKSYPLSAIFTT
notes: as for B1
Take B2: in the assay with LukE, the binding result is on record as “binds”.

B3: Luk59 (designed binder)
chain: LPAPKNLVVSRVTEDSARLSWTAPDAAFDSFDISYNEFAWSGEAIVLTVPGSERSYDLTGLKPGTEYVVYIHGVKGGPTSYPLSAIFTT
notes: as for B1
For the molecule B3, the binding result with LukE is “binds”.

B4: Luk53 (designed binder)
chain: LPAPKNLVVSRVTEDSARLSWTAPDAAFDSFTIQYFEAEANGEAIVLTVPGSERSYDLTGLKPGTEYLVFIVGVKGGHSSLPLSAIFTT
notes: as for B1
For B4, the binding result with LukE is “binds”.

B5: Luk55 (designed binder)
chain: LPAPKNLVVSRVTEDSARLSWTAPDAAFDSFWIQYFESAGEGEAIVLTVPGSERSYDLTGLKPGTEYLVFIVGVKGGVPSYPLSAIFTT
notes: as for B1
Take B5: the binding result with LukE is given as “binds”.

B6: Luk51 (designed binder)
chain: LPAPKNLVVSRVTEDSARLSWTAPDAAFDSFQIHYFESEPGGEAIVLTVPGSERSYDLTGLKPGTEYVVFIIGVKGGWSSLPLSAIFTT
notes: as for B1
Regarding B6, the binding result with LukE is recorded as “binds”.

B7: Luk9 (designed binder)
chain: LPAPKNLVVSRVTEDSARLSWDRTYSLLNYFDSFLIQYQESEKVGEAIVLTVPGSERSYDLTGLKPGTEYTVSIYGVGGQHPTYESNPLSAIFTT
notes: as for B1
Turning to B7, the binding result with LukD is given as “binds”.

B8: Luk17 (designed binder)
chain: LPAPKNLVVSRVTEDSARLSWTAPDAAFDSFWITYEEKFYRGEAIVLTVPGSERSYDLTGLKPGTEYKVWIVGVKGGQGSWPLSAIFTT
notes: also called Luk17 anti-LukAB FN3 domain; not shown: C-terminal poly-histidine tag
Regarding B8, the binding result in assay [1] is recorded as “binds”.

B9: Luk46 (designed binder)
chain: LPAPKNLVVSRVTEDSARLSWTAPDAAFDSFWIHYEESTWAGEAIVLTVPGSERSYDLTGLKPGTEYGVVIVGVKGGLKSHPLSAIFTT
notes: as for B1
As for B9, in the assay with LukE, the binding result is on record as “binds”.

B10: Luk10 (designed binder)
chain: LPAPKNLVVSRVTEDSARLSWAASENAFVFDSFLIQYQESEKVGEAIVLTVPGSERSYDLTGLKPGTEYTVSIYGVGGKLHNQFEWLSNPLSAIFTT
notes: also called anti-LukD FN3 domain Luk10; not shown: C-terminal poly-histidine tag
For the molecule B10, the binding result in the assay with LukD is “binds”.

B11: Luk43 (designed binder)
chain: LPAPKNLVVSRVTEDSARLSWTAPDAAFDSFLIQYQESEKVGEAIVLTVPGSERSYDLTGLKPGTEYTVSIYGVNSFGRPTLNLFSNPLSAIFTT
notes: as for B1
On to B11, for which the binding result with LukE is “binds”.

B12: Luk45 (designed binder)
chain: LPAPKNLVVSRVTEDSARLSWTAPDAAFDSFLIQYQESEKVGEAIVLTVPGSERSYDLTGLKPGTEYTVSIYGVAWLTNAYEWEFSNPLSAIFTT
notes: as for B1
B12: the binding result with LukE is “binds”.

B13: Luk44 (designed binder)
chain: LPAPKNLVVSRVTEDSARLSWTAPDAAFDSFLIQYQESEKVGEAIVLTVPGSERSYDLTGLKPGTEYTVSIYGVEWLQYYGETLFSNPLSAIFTT
notes: as for B1
As to B13, the binding result with LukE was “binds”.

B14: Luk40 (designed binder)
chain: LPAPKNLVVSRVTEDSARLSWTAPDAAFDSFLIQYQESEKVGEAIVLTVPGSERSYDLTGLKPGTEYTVSIYGVSYAGEPLLWIYSNPLSAIFTT
notes: as for B1
For B14, in the assay with LukE, the binding result was “binds”.

B15: Luk49 (designed binder)
chain: LPAPKNLVVSRVTEDSARLSWTAPDAAFDSFAIVYAEHWPAGEAIVLTVPGSERSYDLTGLKPGTEYNVTIPGVKGGKYSDPLSAIFTT
notes: as for B1
Consider B15, for which the binding result with LukE is “binds”.

B16: Luk24 (designed binder)
chain: LPAPKNLVVSRVTEDSARLSWTAPDAAFDSFQIGYFELWPNGEAIVLTVPGSERSYDLTGLKPGTEYEVFIRGVKGGLYSYPLSAIFTT
notes: as for B1
B16: the binding result in assay [1] is “binds”.

B17: Luk19 (designed binder)
chain: LPAPKNLVVSRVTEDSARLSWYHAIHRLNHFDSFLIQYQESEKVGEAIVLTVPGSERSYDLAGLKPGTEYTVSIYGVLPDAFVSSNPLSAIFTT
notes: as for B1
Turning to B17, in assay [1], the binding result is reported as “binds”.

B18: Luk20 (designed binder)
chain: LPAPKNLVVSRVTEDSARLSWYHAIHRLNHFDSFLIQYQESEKVGEAIVLTVPGSERSYDLTGLKPGTEYTVSIYGVLPDAFVSSNPLSAIFTT
notes: as for B1
Regarding B18, the binding result in assay [1] is reported as “binds”.

B19: Luk54 (designed binder)
chain: LPAPKNLVVSRVTEDSARLSWTAPDAVFDSFRIEYSEWWPIGEAIVLTVPGSERSYDLTGLKPGTEYGVVIAGVKGGGYSVPLSAIFTT
notes: as for B1
On to B19, for which the binding result in the assay with LukE was “binds”.

B20: Luk41 (designed binder)
chain: LPAPKNLVVSRVTEDSARLSWTAPDAAFDSFLIQYQESEKVGEAIVLTVPGSERSYDLTGLKPGTEYTVSIYGVSEVPYSEYWFSNPLSAIFTT
notes: as for B1
In the case of B20, in the assay with LukE, the binding result was “binds”.

B21: Luk42 (designed binder)
chain: LPAPKNLVVSRVTEDSARLSWTAPDAAFDSFLIQYQESEKVGEAIVLTVPGSERSYDLTGLKPGTEYTVSIYGVVWGYRLTTEHSNPLSAIFTT
notes: as for B1
Regarding B21, in the assay with LukE, the binding result is on record as “binds”.

B22: Luk12 (designed binder)
chain: LPAPKNLVVSRVTEDSARLSWRAKPWAPKFDSFLIQYQESEKVGEAIVLTVPGSERSYDLTGLKPGTEYTVSIYGVKASEKFIESNPLSAIFTT
notes: also called Luk12 anti-LukD FN3 domain; not shown: C-terminal poly-histidine tag
Regarding B22, the binding result with LukD is on record as “binds”.

B23: Luk11 (designed binder)
chain: LPAPKNLVVSRVTEDSARLSWRAKPWAPKFDSFLIQYQESEKVGEAIVLTVPGSERSYDLTGLKPGTEYTVSIYGVSAIKPGHTSNPLSAIFTT
notes: as for B1
On to B23, for which, in the assay with LukD, the binding result is on record as “binds”.

B24: Luk22 (designed binder)
chain: LPAPKNLVVSRVTEDSARLSWRAKPWAPKFDSFLIQYQESEKVGEAIVLTVPGSERSYDLTGLKPGTEYAVSIYGVKASEKFIESNPLSAIFTT
notes: also called anti-LukD FN3 domain Luk22; not shown: C-terminal poly-histidine tag
B24: in the assay with LukD, the binding result was “binds”.

B25: Luk8 (designed binder)
chain: LPAPKNLVVSRVTEDSARLSWKRKPWAPIFDSFLIQYQESEKVGEAIVLTVPGSERSYDLTGLKPGTEYTVSIYGVWDHAGPKYEIESNPLSAIFTT
notes: as for B1
As for B25, the binding result with LukD is recorded as “binds”.

B26: Luk21 (designed binder)
chain: LPAPKNLVVSRVTEDSARLSWVTKPWAEYFDSFLIQYQESEKVGEAIVLTVPGSERSYDLTGLKPGTEYTVSIYGVWDHAGPKYEIESNPLSAIFTT
notes: as for B1
Turning to B26, the binding result with LukD is “binds”.

B27: Luk57 (designed binder)
chain: LPAPKNLVVSRVTEDSARLSWTAPDAAFNSFYIEYFEWFPAGEAIVLTVPGSERSYDLTGLKPGTEYAVIIHGVKGGQRSTPLSAIFTT
notes: as for B1
Consider B27, for which the binding result with LukE is recorded as “binds”.

B28: Luk38 (designed binder)
chain: LPAPKNLVVSRVTEDSARLSWTAPDAAFDSFLIQYQESEKVGEAIVLTVPGSERSYDLTGLKPGTEYTVSIYGVELIYHGWLDFVFSNPLSAIFTT
notes: also called anti-LukE FN3 domain Luk38; not shown: C-terminal poly-histidine tag
Turning to B28, the binding result with LukE is recorded as “binds”.

B29: Luk39 (designed binder)
chain: LPAPKNLVVSRVTEDSARLSWTAPDAAFDSFLIQYQESEKVGEAIVLTVPGSERSYDLTGLKPGTEYTVSIYGVRVFYFSVEPTWFSNPLSAIFTT
notes: as for B1
As to B29, the binding result with LukE was “binds”.

B30: Luk56 (designed binder)
chain: LPAPKNLVVSRVTEDSARLSWTAPDAAFDSFYIQYIELEIGEAIVLTVPGSERSYDLTGLKPGTEYGVFISGVKGGWNSYPLSAIFTT
notes: as for B1
As for B30, the binding result with LukE was “binds”.

B31: Luk58 (designed binder)
chain: LPAPKNLVVSRVTEDSARLSWTAPDAAFDSFDIEYDESAHFGEAIVLTVPGSERSYDLTGLKPGTEYIVFIYGVKGGYASIPLSAIFTT
notes: as for B1
With B31, in the assay with LukE, the binding result was “binds”.
